Patent US20230331827A1, “POTASSIUM CHANNEL INHIBITORS” (priority 2017, published 2023)

B1: KB_A12_ShK: ShK toxin in VL CDR2 of KB_A12, IgG1 (antibody, V domains shown)
VH: EVQLVESGGGLVRPGGSLRLSCAASGFTFSSYAMSWVRQAPGKGLEWVSAISGSGGSTYYADSVKGRFTISRDNTKNSLYLQMTSLRADDTAFYYCVKDFGPGYGTGWFDYWGPGTLVTVSS
VL: QSVLTQPPSVSEAPRQRVTITCSGSSSNIGNNAVNWYQQLPGKAPKLLIYAAGRRSCIDTIPKSRCTAFQCKHSMKYRLSFCRKTCGTCANSGVSDRFSAAKSGTSASLAINGLRSEDEADYYCAAWDDSLNGYVFGTGTKLTVLG
B2: KB_A07: EETI-II knottin fused into VL CDR2, D1A12 VH; parental KnotBody, isotype control (antibody, V domains shown)
VH: B1 VH
VL: DIQMTQSPSSLSASVGDRVTITCRASQSISSYLNWYQQKPGKAPKLLIYAAGVCPRILMRCKQDSDCLAGCVCGPNGFCGSRSGVPSRFSGSGSGTDFTLTISSLQPEDFATYYCQQGASPPYTFGQGTKVEIKRT
B3: KB_A12: EETI-II knottin fused into VL CDR2, D1A12 VH; parental KnotBody, isotype control (antibody, V domains shown)
VH: B1 VH
VL: QSVLTQPPSVSEAPRQRVTITCSGSSSNIGNNAVNWYQQLPGKAPKLLIYAAGRCPRILMRCKQDSDCLAGCVCGPNGFCGANSGVSDRFSAAKSGTSASLAINGLRSEDEADYYCAAWDDSLNGYVFGTGTKLTVLGQP

Tests used:
huKv1.3 = molecular target: T1, huKv1.3 (Homo sapiens, UniProt P22001); experiment: QPatch automated whole-cell patch-clamp, CHO cells stably expressing huKv1.3 (Example 8); format: cell-based
T1 construct: host or cells: CHO
Experimental: Knottin Kv 1.3 and ASIC1a blockers expressed in the KnotBody format (see examples 6 and 7) were tested for their ability to inhibit the function of the ion channel targets. The effect of these KnotBodies on cells expressing the human Kv 1.3 (huKv1.3) or human ASIC1a channels was assessed using QPatch automated whole-cell patch-clamp electrophysiology (Sophion).
For the testing of Kv1.3, CHO cells stably expressing huKv1.3 (Charles River Lab) were analysed using the QPatch electrophysiology assay in the presence or absence of the KnotBody fusions or the antibody isotypes (negative) controls. Internal and external physiological solutions were freshly prepared prior to the assay. The extracellular solution contained 145 mM NaCl, 4 mM KCl, 2 mM CaCl2, 1 mM MgCl2, 10 mM HEPES and 10 mM glucose; the pH was adjusted to 7.4 with NaOH; the osmolarity was ~ 305 mOsm/L. The intracellular solution contained: KF (120 mM), KCl (20 mM), HEPES (10 mM) and EGTA (10 mM); the pH was adjusted to 7.2 with KOH; osmolarity was ~ 320 mOsm/L.
A series of depolarising voltage (channel activating) pulses were used to monitor the channel currents upon adding control (extracellular solution) to define a control baseline of current activity. To these measured control currents ascending concentrations of KnotBodies or parental antibody isotypes (control molecules) were applied to the external bathing solution (2.2 µM - 0.5 nM, diluted in the extracellular solution). KnotBodies KB_A12 and KB_A07 (EETI-II fusions) were used as isotype controls for the testing. From a holding voltage of -80 mV a depolarising, activating voltage pulses of +30 or +80 mV were applied for 300 ms, every 5 or 10 seconds. The elicited, maximum outward current values measured during the activating step for each solution exchange period were averaged (n = 3 - 8 for each concentration applied) and plotted as concentration-response curves. KB_A07_ShK, KB_A12_ShK and KB_A07_Kaliotoxin (KTX) fusion proteins all inhibited the huKv1.3 currents in a concentration dependent manner with IC50S of approximately 20 nM, 40 nM and 900 nM respectively.

trypsin = experiment: Phage TRF binding assay on immobilised biotinylated trypsin (monoclonal phage ELISA); settings: for % reduction in binding signal: GlyAla mutant (Pro3, Arg4 of EETI-II substituted) versus the clone, monoclonal phage; for Tryspin binding signal (FU): monoclonal phage supernatant, biotinylated trypsin on neutravidin plates
Method in brief: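 Monoclonal phage from single clones tested for binding to biotinylated trypsin immobilised on neutravidin-coated plates. Bound phage detected with mouse anti-M13 antibody then europium-conjugated anti-mouse antibody, read by time-resolved fluorescence. Clones with >3x signal over background scored positive.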

[1] = Kv1.3 channels, IgG KnotBody, Table 11A

T1 sequence (P22001 whole entry): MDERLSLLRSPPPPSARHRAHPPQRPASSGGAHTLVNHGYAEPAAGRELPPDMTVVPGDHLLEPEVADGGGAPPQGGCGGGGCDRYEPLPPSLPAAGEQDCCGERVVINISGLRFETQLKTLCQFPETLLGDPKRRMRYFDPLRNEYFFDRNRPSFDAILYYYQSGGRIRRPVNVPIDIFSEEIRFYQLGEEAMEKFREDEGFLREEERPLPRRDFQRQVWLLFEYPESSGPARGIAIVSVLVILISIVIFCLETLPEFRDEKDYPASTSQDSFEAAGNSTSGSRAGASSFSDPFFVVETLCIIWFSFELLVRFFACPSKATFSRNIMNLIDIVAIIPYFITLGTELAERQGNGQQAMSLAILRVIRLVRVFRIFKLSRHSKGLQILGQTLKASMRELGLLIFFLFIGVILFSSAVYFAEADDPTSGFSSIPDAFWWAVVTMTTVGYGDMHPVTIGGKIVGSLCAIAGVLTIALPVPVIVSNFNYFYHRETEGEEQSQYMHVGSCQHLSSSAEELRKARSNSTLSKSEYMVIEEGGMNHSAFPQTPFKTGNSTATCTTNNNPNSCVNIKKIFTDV

| Molecule | IC50 (huKv1.3; [1]) [nM] | IC50 (huKv1.3; huKv1.3 currents, text of Example 8, approximately) [nM] | % reduction in binding signal (trypsin) [%] | Tryspin binding signal (FU) (trypsin) | phage binding to trypsin (trypsin; PEG precipitated phage, compared to EETI-II cow ULVC-Ab, FIG. 25) |
| --- | --- | --- | --- | --- | --- |
| B1 | 20 | ~40 | – | – | – |
| B2 | > 10000 | – | 98 | 21448 | – |
| B3 | > 10000 | – | 99 | 69349 | superior binding to trypsin |
